Experimental data published in publication doi:10.1101/2023.08.10.552651.

Key:
[1] = target: SbtB ΔT-loop (T-loop Arg43-Ser52 truncation variant of SbtB) (Synechocystis sp. PCC 6803); test: cryo-EM structure
[2] = target: sodium-dependent bicarbonate transporter SbtA (Synechocystis sp. PCC 6803); test: cryo-EM structure

Substance	stoichiometry N [1]	stoichiometry N [2]
SbtB ΔT-loop (T-loop Arg43-Ser52 truncation variant of SbtB) (natural protein)	3	–
sodium-dependent bicarbonate transporter SbtA (natural protein)	–	3
